Source: patent US7348154B2, “IGF binding proteins” (Genentech, Inc., priority 2003, dated 2008)

Legend:
[1] = molecular target: T1, native-sequence human IGFBP-3 (Homo sapiens, UniProt P17936, A32G); assay: BIAcore competition: bp15 versus immobilized biotinylated IGF-I and -II for binding to IGFBP-3; conditions: 15 nM to 100 µM bp15, 20 nM IGFBP-3, 1 hour at room temperature
T1 construct: “wild-type IGFBP-3,” and “full-length IGFBP-3” is wild-type human IGFBP-3; made in house; host or cells: E. coli BL21, vector pET21a
T1 sequence (P17936 28-291 A32G): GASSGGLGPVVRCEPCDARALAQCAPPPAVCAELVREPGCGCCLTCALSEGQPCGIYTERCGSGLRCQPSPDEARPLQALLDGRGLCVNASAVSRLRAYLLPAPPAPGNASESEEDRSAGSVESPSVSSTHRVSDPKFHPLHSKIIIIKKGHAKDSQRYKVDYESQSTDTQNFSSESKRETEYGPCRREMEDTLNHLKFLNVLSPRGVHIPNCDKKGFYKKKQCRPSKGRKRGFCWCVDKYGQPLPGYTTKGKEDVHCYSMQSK
Experimental: A total of 15 nM to 100:M bp15 peptide and 20 nM native-sequence human IGFBP-3 were incubated for 1 hour at room temperature before injection over immobilized biotinylated native-sequence human IGF-I and -II.
Competition binding experiments were carried out as follows. 15 nM to 100:M bp15 peptide and 20 nM IGFBP-3 were incubated for 1 hour at room temperature before injection at 20:l/min in PBST over immobilized biotinylated IGF-I and -II. Equilibrium binding data was plotted in GraphPad Prism™ software and fit to a one-site competition-binding model.
(§1) Peptide bp15 ([…]) (SEQ ID NO:11) was identified by phage display (Lowman et al., Biochemistry, 1998, supra). […] Therefore, bp15 was tested to see if it would bind to the miniBP-3 fusion. Compare FIGS. 7 and 8 for competitive binding data for bp15 to IGFBP-3 and to the miniBP-3 fusion, respectively.

[2] = molecular target: T2, miniBP-3 fusion protein (Homo sapiens, UniProt P17936); assay: BIAcore competition: bp15 versus immobilized biotinylated IGF-I for binding to miniBP-3 fusion protein; conditions: 1.17 to 300 µM bp15, 1 µM miniBP-3 fusion; exact affinity not determined due to lack of saturation
T2 construct: made in house; host or cells: E. coli BL21, vector pET21a; purified on IgG Sepharose
T2 sequence (P17936 74-126, added parts left off): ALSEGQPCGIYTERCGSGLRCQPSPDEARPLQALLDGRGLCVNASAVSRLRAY
Experimental: as §1

[3] = molecular target: native-sequence human IGF-II (Homo sapiens, UniProt P01344); assay: BIAcore kinetic analysis of binding to IGF-II
Chain of native-sequence human IGF-II (P01344 25-91 limits assumed): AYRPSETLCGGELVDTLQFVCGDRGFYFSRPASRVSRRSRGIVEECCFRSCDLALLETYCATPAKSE
Experimental: (§2) Two types of chips were prepared for this purpose.
(§3) Carboxymethylated dextran biosensor chips (CM5, BIAcore Inc.) were activated with EDC (N-ethyl-N′-(3-dimethylaminopropyl)-carbodiimide hydrochloride) and NHS(N-hydroxysuccinimide) according to the supplier's instructions. For immobilization, wild-type IGFBP-3 and mutants in 10 mM sodium acetate, pH 4, were injected onto the biosensor chip at a concentration of 0.2 mg/ml to yield approximately 450-700 RU's (resonance-response units) of covalently coupled protein. Unreacted groups were blocked with an injection of 1 M ethanolamine.
(§4) Kinetic measurements were carried out by injecting two-fold serial dilutions of IGF-I or IGF-II in PBST running buffer (PBS, 0.05% TWEEN-20™ buffer, 0.01% sodium azide) at 25° C. using a flow rate of 20 or 50:l/min. IGF concentrations ranged between 0.4 nM and 50 nM for IGFBP-3 and 100 nM to 25:M for miniBP-3 fusion. For both proteins, association and dissociation rates were calculated using a 1:1 Langmuir association model in the BIAcore™ evaluation software. For wild-type IGFBP-3, the equilibrium dissociation constant was calculated as kd/ka. For miniBP-3 fusion, the equilibrium dissociation constant was calculated by plotting equilibrium binding data in GraphPad Prism™ software (GraphPad Software Inc., San Diego, Calif.) and fitting to a one-site binding model.
(§5) Streptavidin-coated chips were conditioned according to the manufacturer's instructions (BIAcore, Inc.) prior to injection of 0.02 mg/ml of biotinylated IGF-I or IGF-II in 10 mM sodium acetate pH 4. Biotinylated IGF-I and IGF-II were prepared using EZ-Link biotinylation reagents according to the manufacturer's instructions (Pierce). Between 100 and 1000 RUs were immobilized on the chip.
(§6) Concentrations were between 250 nM and 32:M.

[4] = molecular target: native-sequence human IGF-I (Homo sapiens, UniProt P05019); assay: BIAcore kinetic analysis of binding to IGF-I
Chain of native-sequence human IGF-I (P05019 49-118 limits assumed): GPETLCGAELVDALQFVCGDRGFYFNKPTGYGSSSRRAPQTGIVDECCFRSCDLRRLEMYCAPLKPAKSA
Experimental: as §2, §3, §4, §5, §6

[5] = IGF-II injected over immobilized wild-type IGFBP-3, 25° C., 1:1 Langmuir model
[6] = wild-type IGFBP-3, calculated as kd/ka
[7] = IGF-I injected over immobilized wild-type IGFBP-3, 25° C., 1:1 Langmuir model

Substance | competition with IGF-I and -II for binding to IGFBP-3 [1] | binding to miniBP-3 fusion [2] | ka [3, 5] | kd [3, 5] | Kd [3, 6] [nM] | ka [4, 7] | kd [4, 7] | Kd [4, 6] [nM]
SEEVCWPVAEWYLCN (Sequence is synthesized) [bp15] | competes with IGF-I and -II for binding to IGFBP-3 | does bind to the miniBP-3 fusion, but with reduced affinity compared to wild-type IGFBP-3 |  |  |  |  |  | 
Wild-type IGFBP-3: wild-type human IGFBP-3 (SEQ ID NO:1 or 12), produced in E. coli and refolded |  |  | 348 ± 1.02 ×10^4 M^−1 s^−1 | 4.07 ± 0.05 ×10^−4 s^−1 | 0.12 ± 0.001 | 715 ± 3.66 ×10^4 M^−1 s^−1 | 7.58 ± 0.07 ×10^−4 s^−1 | 0.11 ± 0.001
